Measurements as given in paper PMC6555819, “Comprehensive study of nuclear receptor DNA binding provides a revised framework for understanding receptor specificity”.

B1: NRC3_wobSeed1_DR0_T8A_o1 (dsDNA)
DNA 1: GCCAAACAAGGTCAAGGTCAAAGTCGGTTTGTGCCAGCGATTGACAGCGTAGAATGAAGG
DNA 2: CCTTCATTCTACGCTGTCAATCGCTGGCACAAACCGACTTTGACCTTGACCTTGTTTGGC
B2: NRC3_random_hg19_277_o1 (dsDNA)
DNA 1: GCGGTGGCACACGCATGGAATCCCAGCGCTTTGGGAGCGATTGACAGCGTAGAATGAAGG
DNA 2: CCTTCATTCTACGCTGTCAATCGCTCCCAAAGCGCTGGGATTCCATGCGTGTGCCACCGC
B3: NRC3_wobSeed25_DR1_T8C_o1 (dsDNA)
DNA 1: GCCAAACCAGGTCAAAGGTCAAAGTCGAGCCAACCAGCGATTGACAGCGTAGAATGAAGG
DNA 2: CCTTCATTCTACGCTGTCAATCGCTGGTTGGCTCGACTTTGACCTTTGACCTGGTTTGGC
B4: NRC3_wobSeed75_DR3_A12T_o1 (dsDNA)
DNA 1: GCTCTCGGAGGTCACGAAGGTCAGAGCTTTCCAGAGGCGATTGACAGCGTAGAATGAAGG
DNA 2: CCTTCATTCTACGCTGTCAATCGCCTCTGGAAAGCTCTGACCTTCGTGACCTCCGAGAGC
B5: NRC3_wobSeed143_DR5_G12T_o1 (dsDNA)
DNA 1: GCAGAACGAGGTCACGCTGAGTTGATAGCAGAGTAGGCGATTGACAGCGTAGAATGAAGG
DNA 2: CCTTCATTCTACGCTGTCAATCGCCTACTCTGCTATCAACTCAGCGTGACCTCGTTCTGC
B6: NRC3_random_hg19_198_o1 (dsDNA)
DNA 1: GCAGTTATGTCCACTTGCATAAGTGCAACGTTTGGCGCGATTGACAGCGTAGAATGAAGG
DNA 2: CCTTCATTCTACGCTGTCAATCGCGCCAAACGTTGCACTTATGCAAGTGGACATAACTGC
B7: NRC3_wobSeed119_DR4_G12T_o1 (dsDNA)
DNA 1: GCGGAACGAGGTCATTCGAGTTGATAGCATGGCGATGCGATTGACAGCGTAGAATGAAGG
DNA 2: CCTTCATTCTACGCTGTCAATCGCATCGCCATGCTATCAACTCGAATGACCTCGTTCCGC
B8: NRC3_random_hg19_444_o1 (dsDNA)
DNA 1: GCGGGTGTGGTCGTGGGCACCTGCAGTCCCAGCTACGCGATTGACAGCGTAGAATGAAGG
DNA 2: CCTTCATTCTACGCTGTCAATCGCGTAGCTGGGACTGCAGGTGCCCACGACCACACCCGC
B9: NRC3_random_hg19_273_o1 (dsDNA)
DNA 1: GCTGCAGGGTTTCTACCGAGAAGTCTGCTGTTAGTCGCGATTGACAGCGTAGAATGAAGG
DNA 2: CCTTCATTCTACGCTGTCAATCGCGACTAACAGCAGACTTCTCGGTAGAAACCCTGCAGC
B10: NRC3_random_hg19_142_o1 (dsDNA)
DNA 1: GCGGTACTCAGTATGTGAAGAATCATGTTGAGGCAGGCGATTGACAGCGTAGAATGAAGG
DNA 2: CCTTCATTCTACGCTGTCAATCGCCTGCCTCAACATGATTCTTCACATACTGAGTACCGC
B11: NRC3_wobSeed45_DR1_A9T_o1 (dsDNA)
DNA 1: GCTGTCAATGTTCAAAGGTAACGTAAGTATCCACACGCGATTGACAGCGTAGAATGAAGG
DNA 2: CCTTCATTCTACGCTGTCAATCGCGTGTGGATACTTACGTTACCTTTGAACATTGACAGC
B12: NRC3_wobSeed124_DR5_T23G_o1 (dsDNA)
DNA 1: GCCCTACTGGGCCATTCAGAGGGCATTGATCATATGGCGATTGACAGCGTAGAATGAAGG
DNA 2: CCTTCATTCTACGCTGTCAATCGCCATATGATCAATGCCCTCTGAATGGCCCAGTAGGGC
B13: NRC3_random_hg19_491_o1 (dsDNA)
DNA 1: GCCGCCTTTAGATTGCAGGCTCCTGGAGAGCTGTCTGCGATTGACAGCGTAGAATGAAGG
DNA 2: CCTTCATTCTACGCTGTCAATCGCAGACAGCTCTCCAGGAGCCTGCAATCTAAAGGCGGC
B14: NRC3_random_hg19_388_o1 (dsDNA)
DNA 1: GCACAAGTCTACAAACCCTGGGAGAATGAGAAGTGTGCGATTGACAGCGTAGAATGAAGG
DNA 2: CCTTCATTCTACGCTGTCAATCGCACACTTCTCATTCTCCCAGGGTTTGTAGACTTGTGC
B15: NRC3_wobSeed53_DR2_A17T_o1 (dsDNA)
DNA 1: GCCCTTACGGGTCACGTGGTTATAGCACGACGAGCGGCGATTGACAGCGTAGAATGAAGG
DNA 2: CCTTCATTCTACGCTGTCAATCGCCGCTCGTCGTGCTATAACCACGTGACCCGTAAGGGC
B16: NRC3_wobSeed93_DR3_A22C_o1 (dsDNA)
DNA 1: GCAGTCAAAGTTCATCTAGGTCACGTAAGATATGCTGCGATTGACAGCGTAGAATGAAGG
DNA 2: CCTTCATTCTACGCTGTCAATCGCAGCATATCTTACGTGACCTAGATGAACTTTGACTGC
B17: NRC3_wobSeed34_DR1_G6A_o1 (dsDNA)
DNA 1: GCATCAAAAGGTCGAAGGTGAGTATACCCACCCGAAGCGATTGACAGCGTAGAATGAAGG
DNA 2: CCTTCATTCTACGCTGTCAATCGCTTCGGGTGGGTATACTCACCTTCGACCTTTTGATGC
B18: NRC3_random_hg19_177_o1 (dsDNA)
DNA 1: GCATCTTTAGCAAGATACTTCATAGGTACTACTGTGGCGATTGACAGCGTAGAATGAAGG
DNA 2: CCTTCATTCTACGCTGTCAATCGCCACAGTAGTACCTATGAAGTATCTTGCTAAAGATGC
B19: NRC3_random_hg19_28_o1 (dsDNA)
DNA 1: GCCATCTAAAGCCTTGACAGGCTGGGATAGCTGCTTGCGATTGACAGCGTAGAATGAAGG
DNA 2: CCTTCATTCTACGCTGTCAATCGCAAGCAGCTATCCCAGCCTGTCAAGGCTTTAGATGGC
B20: NRC3_wobSeed13_DR0_A14T_o1 (dsDNA)
DNA 1: GCCGTCCAAGGTCTAGGTCAGTGAAAGAGACTCGAAGCGATTGACAGCGTAGAATGAAGG
DNA 2: CCTTCATTCTACGCTGTCAATCGCTTCGAGTCTCTTTCACTGACCTAGACCTTGGACGGC

biological target: RXRa (Homo sapiens, UniProt P19793); assay: no ligand; PBM; 180 nM; PBS pH 7.4, 2% milk, 0.02% Triton X-100, 1 mM DTT, BSA, 0.4 mg/ml salmon testes DNA; settings: tags: His cleaved; chain copies: 2; label: surface-attached array probe
Sequence (P19793 whole entry): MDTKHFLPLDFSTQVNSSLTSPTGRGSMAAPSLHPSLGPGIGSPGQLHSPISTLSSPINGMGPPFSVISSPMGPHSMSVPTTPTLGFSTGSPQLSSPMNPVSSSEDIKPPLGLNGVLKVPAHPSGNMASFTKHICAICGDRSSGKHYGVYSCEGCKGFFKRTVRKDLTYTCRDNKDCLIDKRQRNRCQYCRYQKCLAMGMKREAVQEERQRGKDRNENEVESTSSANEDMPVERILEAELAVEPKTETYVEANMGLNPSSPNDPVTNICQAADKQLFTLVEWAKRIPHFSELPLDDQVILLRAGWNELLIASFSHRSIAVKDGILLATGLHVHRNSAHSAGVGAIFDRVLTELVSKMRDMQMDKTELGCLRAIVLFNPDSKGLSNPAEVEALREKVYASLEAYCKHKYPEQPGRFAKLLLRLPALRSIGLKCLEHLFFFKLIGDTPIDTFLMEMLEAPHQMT

Binder	binding signal
B1	7.79 PBM z-score against 500 random probes
B2	-0.54 PBM z-score against 500 random probes
B3	10.8 PBM z-score against 500 random probes
B4	8.41 PBM z-score against 500 random probes
B5	8.4 PBM z-score against 500 random probes

biological target: FXR:RXRa (Homo sapiens, UniProt Q96RI1;P19793 full;full); assay: no ligand; PBM; 270 nM : 90 nM RXRa; PBS pH 7.4, 2% milk, 0.02% Triton X-100, 1 mM DTT, BSA, 0.4 mg/ml salmon testes DNA; settings: tags: His kept;His cleaved; copies: 1;1; label: surface-attached array probe
How it was run: (§1)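 Probes were double-stranded and carried 34-nt variable regions with direct-repeat seeds, single-nucleotide variants, half-site ablations and random human genomic background sequences, printed on custom Agilent 4×180K protein-binding microarrays. Arrays were incubated 1 h with ligand-free nuclear receptor dimers in PBS pH 7.4, 2% milk, 0.02% Triton X-100, 1 mM DTT, 0.2 mg/mL BSA and 0.4 mg/ml salmon testes DNA. Antibodies against each partner (one per run) detected binding, and scanned fluorescence was regression-normalized. Binding z-scores use the random background probes as reference.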

FXR:RXRa, sequence (Q96RI1 whole entry, chain 1 of 2): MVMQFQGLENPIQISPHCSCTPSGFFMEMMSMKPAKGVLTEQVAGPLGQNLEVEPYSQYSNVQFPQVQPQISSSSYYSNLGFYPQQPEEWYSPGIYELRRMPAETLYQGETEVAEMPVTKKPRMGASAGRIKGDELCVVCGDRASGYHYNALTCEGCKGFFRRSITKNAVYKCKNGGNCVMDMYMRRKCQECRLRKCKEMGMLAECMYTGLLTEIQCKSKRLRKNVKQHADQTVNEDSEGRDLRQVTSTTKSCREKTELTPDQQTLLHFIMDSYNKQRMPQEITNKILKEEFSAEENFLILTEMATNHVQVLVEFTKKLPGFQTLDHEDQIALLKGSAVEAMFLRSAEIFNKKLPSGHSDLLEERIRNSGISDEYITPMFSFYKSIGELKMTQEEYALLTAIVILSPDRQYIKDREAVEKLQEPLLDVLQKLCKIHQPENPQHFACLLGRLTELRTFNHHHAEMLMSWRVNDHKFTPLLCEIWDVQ
FXR:RXRa, sequence (P19793 whole entry, chain 2 of 2): as the sequence (P19793 whole entry) above

Binder	binding signal
B1	8.19 PBM z-score against 500 random probes
B3	8.73 PBM z-score against 500 random probes
B6	-0.27 PBM z-score against 500 random probes
B7	7.77 PBM z-score against 500 random probes
B5	8.27 PBM z-score against 500 random probes

biological target: RARg:RXRa (Homo sapiens, UniProt P13631;P19793 full;full); assay: as above; settings: tags: His kept;His cleaved; copies: 1;1; label: surface-attached array probe
How it was run: as §1

RARg:RXRa, sequence (P13631 whole entry, chain 1 of 2): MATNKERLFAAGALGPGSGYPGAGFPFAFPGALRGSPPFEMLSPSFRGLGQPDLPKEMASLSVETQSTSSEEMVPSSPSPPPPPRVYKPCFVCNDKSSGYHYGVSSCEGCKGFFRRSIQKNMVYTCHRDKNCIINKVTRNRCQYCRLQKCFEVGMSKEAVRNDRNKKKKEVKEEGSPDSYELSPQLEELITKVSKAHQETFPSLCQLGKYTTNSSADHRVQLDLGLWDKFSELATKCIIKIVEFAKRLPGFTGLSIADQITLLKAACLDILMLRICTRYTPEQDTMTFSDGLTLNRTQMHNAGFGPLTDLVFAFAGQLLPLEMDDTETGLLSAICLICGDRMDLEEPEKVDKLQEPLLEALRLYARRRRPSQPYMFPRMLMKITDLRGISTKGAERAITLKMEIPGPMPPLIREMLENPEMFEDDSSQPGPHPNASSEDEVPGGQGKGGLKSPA
RARg:RXRa, sequence (P19793 whole entry, chain 2 of 2): as the sequence (P19793 whole entry) above

Binder	binding signal
B8	-0.64 PBM z-score against 500 random probes
B1	7.39 PBM z-score against 500 random probes
B9	-0.66 PBM z-score against 500 random probes
B4	7.62 PBM z-score against 500 random probes
B5	7.45 PBM z-score against 500 random probes

biological target: LXRa:RXRa (Homo sapiens, UniProt Q13133;P19793 full;full); assay: as above; settings: tags: His kept;His cleaved; copies: 1;1; label: surface-attached array probe
How it was run: as §1

LXRa:RXRa, sequence (Q13133 whole entry, chain 1 of 2): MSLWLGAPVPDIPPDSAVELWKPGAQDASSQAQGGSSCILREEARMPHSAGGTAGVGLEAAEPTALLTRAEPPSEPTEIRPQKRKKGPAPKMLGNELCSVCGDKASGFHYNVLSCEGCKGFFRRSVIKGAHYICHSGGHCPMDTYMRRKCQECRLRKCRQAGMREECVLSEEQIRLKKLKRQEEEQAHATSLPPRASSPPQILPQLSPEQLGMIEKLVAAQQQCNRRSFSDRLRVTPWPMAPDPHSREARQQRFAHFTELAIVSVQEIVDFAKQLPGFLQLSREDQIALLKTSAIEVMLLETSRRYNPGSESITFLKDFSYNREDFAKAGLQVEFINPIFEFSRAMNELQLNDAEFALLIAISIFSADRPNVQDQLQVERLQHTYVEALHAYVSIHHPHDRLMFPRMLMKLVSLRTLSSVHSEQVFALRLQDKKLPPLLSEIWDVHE
LXRa:RXRa, sequence (P19793 whole entry, chain 2 of 2): as the sequence (P19793 whole entry) above

Binder	binding signal
B10	0.28 PBM z-score against 500 random probes
B1	6.69 PBM z-score against 500 random probes
B11	0.41 PBM z-score against 500 random probes
B12	-0.01 PBM z-score against 500 random probes
B2	-0.75 PBM z-score against 500 random probes
B3	7.81 PBM z-score against 500 random probes
B13	-0.82 PBM z-score against 500 random probes
B14	-0.44 PBM z-score against 500 random probes
B6	-0.41 PBM z-score against 500 random probes
B15	3.8 PBM z-score against 500 random probes
B16	6.64 PBM z-score against 500 random probes

biological target: VDR:RXRa (Homo sapiens, UniProt P11473;P19793 full;full); assay: as above; settings: tags: His kept;His cleaved; copies: 1;1; label: surface-attached array probe
How it was run: as §1

VDR:RXRa, sequence (P11473 whole entry, chain 1 of 2): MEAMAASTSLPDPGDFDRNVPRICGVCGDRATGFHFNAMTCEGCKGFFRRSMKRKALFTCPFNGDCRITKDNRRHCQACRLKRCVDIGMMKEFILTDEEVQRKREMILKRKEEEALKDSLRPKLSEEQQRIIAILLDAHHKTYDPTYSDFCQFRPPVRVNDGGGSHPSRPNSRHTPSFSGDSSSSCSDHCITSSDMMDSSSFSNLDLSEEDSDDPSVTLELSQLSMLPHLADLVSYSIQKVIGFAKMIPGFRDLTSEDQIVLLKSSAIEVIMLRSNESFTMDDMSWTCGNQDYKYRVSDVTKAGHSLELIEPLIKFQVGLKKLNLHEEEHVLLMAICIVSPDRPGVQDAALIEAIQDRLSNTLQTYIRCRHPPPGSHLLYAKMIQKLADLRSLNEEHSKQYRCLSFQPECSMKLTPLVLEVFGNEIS
VDR:RXRa, sequence (P19793 whole entry, chain 2 of 2): as the sequence (P19793 whole entry) above

Binder	binding signal
B3	7.07 PBM z-score against 500 random probes
B17	3.23 PBM z-score against 500 random probes
B7	6.76 PBM z-score against 500 random probes
B4	7.51 PBM z-score against 500 random probes
B16	7.14 PBM z-score against 500 random probes
B5	6.66 PBM z-score against 500 random probes
B18	0.37 PBM z-score against 500 random probes

biological target: RARb:RXRa (Homo sapiens, UniProt P10826;P19793 full;full); assay: as above; settings: tags: His kept;His cleaved; copies: 1;1; label: surface-attached array probe
How it was run: as §1

RARb:RXRa, sequence (P10826 whole entry, chain 1 of 2): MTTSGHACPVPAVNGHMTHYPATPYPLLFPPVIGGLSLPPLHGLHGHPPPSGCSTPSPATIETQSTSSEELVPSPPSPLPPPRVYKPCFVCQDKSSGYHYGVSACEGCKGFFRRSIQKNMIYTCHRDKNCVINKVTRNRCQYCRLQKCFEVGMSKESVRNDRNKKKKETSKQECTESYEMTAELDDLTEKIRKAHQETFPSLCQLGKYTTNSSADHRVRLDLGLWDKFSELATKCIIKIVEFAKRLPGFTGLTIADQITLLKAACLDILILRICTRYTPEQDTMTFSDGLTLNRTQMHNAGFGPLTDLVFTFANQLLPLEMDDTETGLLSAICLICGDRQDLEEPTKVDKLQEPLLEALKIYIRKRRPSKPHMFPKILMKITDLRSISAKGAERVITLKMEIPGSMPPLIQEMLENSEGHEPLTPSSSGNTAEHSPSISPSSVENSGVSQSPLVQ
RARb:RXRa, sequence (P19793 whole entry, chain 2 of 2): as the sequence (P19793 whole entry) above

Binder	binding signal
B1	6.01 PBM z-score against 500 random probes
B9	-0.17 PBM z-score against 500 random probes
B4	5.84 PBM z-score against 500 random probes
B16	5.57 PBM z-score against 500 random probes
B5	5.54 PBM z-score against 500 random probes

biological target: LXRb:RXRa (Homo sapiens, UniProt P55055;P19793 full;full); assay: as above; settings: tags: His kept;His cleaved; copies: 1;1; label: surface-attached array probe
How it was run: as §1

LXRb:RXRa, sequence (P55055 whole entry, chain 1 of 2): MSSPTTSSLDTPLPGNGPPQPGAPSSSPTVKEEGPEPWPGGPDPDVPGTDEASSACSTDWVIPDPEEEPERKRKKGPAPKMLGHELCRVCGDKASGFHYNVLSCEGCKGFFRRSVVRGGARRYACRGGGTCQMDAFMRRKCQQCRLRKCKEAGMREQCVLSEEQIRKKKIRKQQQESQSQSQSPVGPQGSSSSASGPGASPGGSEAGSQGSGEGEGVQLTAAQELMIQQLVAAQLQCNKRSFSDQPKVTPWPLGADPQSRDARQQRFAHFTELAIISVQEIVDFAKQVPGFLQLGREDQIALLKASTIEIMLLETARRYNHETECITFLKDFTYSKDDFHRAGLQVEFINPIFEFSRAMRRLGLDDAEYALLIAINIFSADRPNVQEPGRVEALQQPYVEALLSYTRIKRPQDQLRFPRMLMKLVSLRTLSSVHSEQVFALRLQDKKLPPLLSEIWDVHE
LXRb:RXRa, sequence (P19793 whole entry, chain 2 of 2): as the sequence (P19793 whole entry) above

Binder	binding signal
B8	0.06 PBM z-score against 500 random probes
B1	5.84 PBM z-score against 500 random probes
B19	-1 PBM z-score against 500 random probes
B20	0.12 PBM z-score against 500 random probes
B9	-0.41 PBM z-score against 500 random probes
B18	0.07 PBM z-score against 500 random probes

biological target: PXR:RXRa (Homo sapiens, UniProt O75469;P19793 full;full); assay: as above; settings: tags: His kept;His cleaved; copies: 1;1; label: surface-attached array probe
How it was run: as §1

PXR:RXRa, sequence (O75469 whole entry, chain 1 of 2): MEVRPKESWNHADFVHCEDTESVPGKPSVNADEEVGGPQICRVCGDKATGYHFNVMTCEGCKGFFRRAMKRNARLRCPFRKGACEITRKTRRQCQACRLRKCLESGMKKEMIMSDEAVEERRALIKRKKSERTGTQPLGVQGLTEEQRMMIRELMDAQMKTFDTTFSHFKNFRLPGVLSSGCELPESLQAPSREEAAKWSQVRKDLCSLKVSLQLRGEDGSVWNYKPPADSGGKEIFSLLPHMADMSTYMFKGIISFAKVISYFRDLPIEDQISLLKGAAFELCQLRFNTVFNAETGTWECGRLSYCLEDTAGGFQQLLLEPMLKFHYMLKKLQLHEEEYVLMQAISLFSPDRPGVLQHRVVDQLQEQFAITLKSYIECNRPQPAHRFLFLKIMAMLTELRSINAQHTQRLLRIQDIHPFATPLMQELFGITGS
PXR:RXRa, sequence (P19793 whole entry, chain 2 of 2): as the sequence (P19793 whole entry) above

Binder	binding signal
B10	0.04 PBM z-score against 500 random probes
B8	-0.37 PBM z-score against 500 random probes
B1	6.47 PBM z-score against 500 random probes
B11	0.4 PBM z-score against 500 random probes
B12	0.42 PBM z-score against 500 random probes
B19	-0.65 PBM z-score against 500 random probes
B2	-0.74 PBM z-score against 500 random probes
B3	7.42 PBM z-score against 500 random probes
B13	-1.27 PBM z-score against 500 random probes
B14	-0.52 PBM z-score against 500 random probes
B17	3.15 PBM z-score against 500 random probes
B20	0.19 PBM z-score against 500 random probes
B6	0.06 PBM z-score against 500 random probes
B15	3.42 PBM z-score against 500 random probes
B7	6.69 PBM z-score against 500 random probes
B9	-0.66 PBM z-score against 500 random probes
B4	6.46 PBM z-score against 500 random probes
B16	7.03 PBM z-score against 500 random probes
B5	6.45 PBM z-score against 500 random probes
B18	-0.14 PBM z-score against 500 random probes
